The record followed here is patent publication US20230131339A1, “EPI-X4 BASED PEPTIDES AND DERIVATIVES THEREOF” (Universitaet Ulm, priority 2020, published 2023).

The nature of series [1]: Lipophilicity, shake-flask method (n-octanol/PBS pH 7.4). The series is classed as physicochemical. As for the experimental part: The hydrophilic/lipophilic character of the ^177Lu/^68Ga-labeled conjugates was determined by the “shake-flask” method. To a pre-saturated solution containing 500 μL of n-octanol and 500 μL of phosphate-buffered saline (PBS) at pH 7.4, 10 μL of 1 picomol ^177Lu/^68Ga-labeled conjugates was added. The solutions were vortexed for 1 h to reach equilibrium and then centrifuged (3000 rpm) for 10 min. Hundred μl of the sample was removed from each phase and measured in a γ-counter. The partition coefficient was calculated as the average of the logarithmic values (n=3) of the ratio between the radioactivity in the organic and the PBS phase. Results are means±standard deviation from a minimum of two separate experiments. ^177Lu/^68Ga-labeled Pentixather, which is a known CXCR4-directed endoradiotherapeutic agent, is used as reference molecule.

Series [2] can be described thus: Stability of radiolabeled conjugates in buffer (radiochemical purity over time). The conditions noted are these: NH4-acetate buffer pH 5.2, ethanol, room temperature. The series is classed as physicochemical. As for the experimental part: The stability of ^177Lu/^68Ga-labeled DOTA-conjugated peptides in ammonium acetate buffer (0.4 M, pH 5.2) and sodium acetate buffer (0.2 M, pH 4-4.5) was assessed by determining the radiochemical purity (RCP) of each radiolabeled conjugate at different time points (0, 1, 2, 4, and 24 h for ^177Lu-complexes and at 0, 1 and 2 h for ^68Ga-complexes) at room temperature. For this, an aliquot of labeling solution was stored at room temperature. RP-HPLC injections were consecutively performed at the desired time points.
Radiolysis-induced instability of [^177Lu]Lu-labeled DOTA-conjugated peptides over time was tracked by determining the radiochemical purity (Table 3). Results are means±standard deviation from a minimum of two separate experiments.

The nature of series [3]: Functional stability assay in human plasma. As to the method: Fourth, the stability of peptides in human plasma and whole human blood was tested (FIG. 4). The functional stability of EPI-X4 (SEQ ID NO.: 1) derivatives was screened using a CXCR4 antibody-based screening approach. Peptides were diluted in full human plasma or blood (>99%) and the functional activity was then measured after either 2 hours or 8 hours and compared to a sample that was not incubated in plasma or blood.
In this test, the peptides were incubated in human plasma for a certain time period.
Stability assay. Whole blood was collected from healthy donors in EDTA tubes and directly used or subsequently centrifuged for 15 min at 2,500×g to obtain plasma. Plasma from 6 donors was pooled and stored in aliquots at −80° C. Compounds were 200-fold diluted in human plasma or whole human blood to reach final concentrations of 20 μM. The t=0 sample was immediately taken and stored at −80° C. Plasma/compound or blood/compound mixture was then transferred to 37° C. and shook at 350 rpm. At given time points samples were taken and stored at −80° C.°. For measuring the functional activity of the plasma/peptide samples, the mixtures were thawed and diluted in ice cold PBS. 12G5-APC antibody competition was then performed as described before. For blood/peptide functional stability, samples were thawed and centrifuged at 14,000 rpm to remove cells and debris. The supernatant was then diluted in PBS and 12G5-antibody competition assay was performed. After the 2 hours incubation, the cells were washed and 50 μl of 1-step-Fix/Lyse solution (Thermo Fisher #00-5333-54) was added for 15 minutes at room temperature. Afterwards cells were washed again and analyzed for bound antibody.

Series [4] in a line: Stability assay in human S9 liver fractions. The conditions noted are these: with cofactors.
Experimental: Further, the stability of peptides in human S9 liver fractions (in the presence of cofactors) was tested (FIG. 12). […] To simulate and predict hepatic metabolic clearance, peptides were added to human S9 liver fractions. […] For each peptide, three independent experiments were performed.
Stability assay in human S9 liver fractions. Pooled human liver S9 fractions were obtained from Thermo Fisher Scientific at a total protein concentration of 20 mg/ml. Fractions were stored in 25 μl aliquots at −80° C. For stability experiments, they were diluted to a final concentration of 0.5 mg/ml in Tris buffer. Cofactors (or buffer) were added immediately before start of the experiment (NADPH: 1 mM, UDPGA: 0.5 mM, GSH: 2.5 mM, PAPS: 0.05 mg/ml, Sigma Aldrich). The reaction was started by adding peptides or compounds at a concentration of 20 μM to the mixture and gentle agitation at 37° C. Determination of enzymatic stability was performed as described for plasma.
Series [5] concerns CXCL12-induced AKT signaling. In words: ERK/AKT signaling assay in SupT1 cells: AKT phosphorylation. It is filed as cell-based. The conditions noted are these: 10 μM. The method in brief: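 SupT1 cells in 1% FCS medium preincubated 15 min at 37 °C with compound, then stimulated 2 min with CXCL12 (100 ng/ml final). PFA-fixed, methanol-permeabilized cells stained for phospho-ERK1/2 (Tyr204/Tyr187) or phospho-AKT (Ser473) and read by flow cytometry; two or three independent experiments in triplicate.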

Series [6] deals with CXCL12-induced ERK signaling. The experiment in a line: ERK/AKT signaling assay in SupT1 cells: ERK phosphorylation. The series is classed as cell-based. The conditions noted are these: 1 μM. As for the experimental part:
Third, the activity of the claimed EPI-X4 derivatives was tested by the effect on CXCL12/CXCR4-mediated ERK (Extracellular-signal Regulated Kinases) and AKT (a serine/threonine-protein kinase) signaling (FIG. 3). In that assay CXCR4 expressing cells are stimulated with the CXCR4 chemokine-ligand CXCL12, which subsequently leads to phosphorylation of ERK and AKT. Preincubation of cells with CXCR4-antagonists blocks those pathways. […] Two or three independent experiments were carried out in triplicates for each peptide in each assay. The error bars refer to the standard deviation.
ERK/AKT signaling assay. CXCL12 induced ERK and AKT phosphorylation was determined in SupT1 cells. For this, 100,000 cells were seeded per well in a 96-V well plate in 100 μl medium supplemented with 1% FCS. Cells were incubated for 2 hours at 37° C. before 5 μl of compounds were added. After 15 min incubation at 37° C. cells were stimulated by adding 5 μl CXCL12 diluted in PBS to reach a final concentration of 100 ng/ml. Cells were further incubated for 2 min before the reaction was stopped by adding 20 μl of 10% PFA. Cells were fixed for 15 min at 4° C. before PFA was removed and cells permeabilized by adding 100 μl ice cold methanol. After 15 min at 4° C. the methanol was removed, cells were washed and 30 μl primary antibody was added (phospho-p44/42 MAPK (Erk1) (Tyr204)/(Erk2) (Tyr187) (D1H6G) mouse mAb #5726; phosphor-Akt (Ser473) (193H12) rabbit mAb #4058 Cell Signaling) for 1 hour at 4° C. After the antibody was removed and cells were washed secondary antibody was added for 30 min. Cells were washed afterwards and subsequently analyzed by flow cytometry.

In series [7] the target is T1, CXC chemokine receptor type 4 (CXCR4) (human, UniProt P61073 1-352).
T1 construct: whole, on cells
In words: antibody competition assay. As to the method:
Antibody competition assay. Competition of compounds with antibody binding was performed on SupT1 cells. For that cells were washed in PBS containing 1% FCS and 50,000 cells were then seeded per well in a 96 V-well plate. Buffer was removed and plates were precooled at 4° C. […] The antibody was used at a concentration closed to its determined Kd. 15 μl compounds were then added to the cells and 15 μl antibody immediately afterwards. Plates were incubated at 4° C. in the dark for 2 hours. Afterwards cells were washed twice with PBS containing 1% FCS and fixed with 2% PFA. Antibody binding was analyzed by flow cytometry (FACS CytoFLEX; Beckman Coulter®).

The target in series [8] is T1, CXC chemokine receptor type 4 (CXCR4). The experiment in a line: cell-based or functional assay.
For series [9], the target named is T2, CXC chemokine receptor type 4 (CXCR4) (human, UniProt P61073 1-352).
T2 chain: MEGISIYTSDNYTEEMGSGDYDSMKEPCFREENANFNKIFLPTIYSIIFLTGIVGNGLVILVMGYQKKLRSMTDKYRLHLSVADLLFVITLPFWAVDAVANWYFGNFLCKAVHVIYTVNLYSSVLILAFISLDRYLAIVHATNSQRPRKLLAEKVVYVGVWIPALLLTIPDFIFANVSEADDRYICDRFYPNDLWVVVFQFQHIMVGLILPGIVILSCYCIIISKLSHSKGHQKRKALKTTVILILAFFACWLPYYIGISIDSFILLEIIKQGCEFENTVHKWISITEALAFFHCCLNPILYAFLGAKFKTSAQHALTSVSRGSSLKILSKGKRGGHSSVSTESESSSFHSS
In words: 12G5 antibody competition.

Where “and” joins values, the source holds several entries; their conditions need not be identical. Equal values may be shown once. Read-outs that look alike come from different tables or passages of the source. Where a SMILES comes first, the peptide text is derived from it. Where no end group is shown, it is not given here. Side-chain parts run from the residue outwards. [ ]: non-standard residue; d: D form. The star is where a group is joined. DOTA = O=C(O)CN1CCN(CC(=O)O)CCN(CC(=O)*)CCN(CC(=O)O)CC1; Stearoyl = CCCCCCCCCCCCCCCCCC(=O)*; Palmitoyl = CCCCCCCCCCCCCCCC(=O)*; Glu = glutamate linker

Consider “[^177Lu]Lu-DOTA-K-JM#122: ^177Lu-labeled DOTA-K-JM #122 (SEQ ID NO.: 102) (ILRWSRKLPSVSK(DOTA); also: 177Lu complex of DOTA)”, for which the “log DO/PBS pH7.4” value is listed as −3.23 ± 0.23 in [1] and −3.23±0.23 in [1] (listed as [^177Lu]Lu-DOTA-K-JM #122). Moreover, the Radiochemical purity in series [2] (time point 0 h) amounted to 97 ± 0%; in series [2] (time point 1 h), 97 ± 0%; in [2] (time point 2 h), 96 ± 1%; in [2] (time point 4 h), 96 ± 1%; in series [2] (time point 24 h), 78 ± 1%; in series [2] (time point 24 h, listed as [^177Lu]Lu-DOTA-K-JM #207), 78±1%.

“[^177Lu]Lu-DOTA-K-JM#21: ^177Lu-labeled DOTA-K-JM #21 (SEQ ID NO.: 101) (ILRWSRKLPCVSK(DOTA); also: 177Lu chelated)”: the “log DO/PBS pH7.4” value in [1] is −1.91 ± 0.24. Moreover, the Radiochemical purity in series [2] (time point 1 h) amounted to 93 ± 3%; in [2] (time point 2 h), 92 ± 6%; in [2] (time point 4 h) it was 90 ± 7%; in [2] (time point 24 h), 62 ± 13%.

Take `CC[C@@H](C)[C@@H](N)C(=O)N[C@@H](CC(C)C)C(=O)N[C@@H](CCCNC(=N)N)C(=O)N[C@@H](Cc1c[nH]c2ccccc12)C(=O)N[C@@H](CO)C(=O)N[C@@H](CCCNC(=N)N)C(=O)N[C@@H](CCCCN)C(N)=O` [JM #173, d-ILRWSRK-NH2] (H-[dI]LRWSRK-NH2): the “remaining (relative) activity after 8 hours of plasma incubation” value in series [3] (human plasma, 8 hours) came to 100%. The “functional stability in human plasma (in words)” value in series [3] (human, plasma) is reported as “completely resistant to plasma enzymes”. In [4] (8 hours), the “remaining activity in human S9 liver fractions after 8 hours” value was “about 14%”.

Consider “[^177Lu]Lu-DOTA-K-JM#29: ^177Lu-labeled DOTA-K-JM #29 (SEQ ID NO.: 165) ([dL]LRWSRKMPCVSK(DOTA); also: 177Lu complex of DOTA)”, for which, in series [1], the “log DO/PBS pH7.4” value is −1.49 ± 0.29. Further, the Radiochemical purity is reported as 98 ± 1% in [2] (time point 0 h), 96 ± 3% in series [2] (time point 1 h), 92 ± 9% in series [2] (time point 2 h) and 90 ± 9% in series [2] (time point 4 h).

In the case of “[^177Lu]Lu-DOTA-JM#118: ^177Lu-labeled DOTA-JM #118 (SEQ ID NO.: 166) (ILRWSRK(DOTA)-NH2; also: 177Lu complex of DOTA)”, the “log DO/PBS pH7.4” value in series [1] is listed as −3.12 ± 0.43. Besides, the Radiochemical purity in series [2] (time point 0 h) is reported as 99 ± 0%; in series [2] (time point 1 h), 98 ± 0%; in [2] (time point 2 h) it was 97 ± 1%; in series [2] (time point 4 h), 95 ± 1%; in [2] (time point 24 h), 80 ± 2%; in series [2] (time point 24 h, listed as [^177Lu]Lu-DOTA-JM #118), 80±2%.

Consider `CC[C@H](C)[C@H](N)C(=O)N[C@H](C(=O)N[C@@H](CCCNC(=N)N)C(=O)N[C@@H](Cc1c[nH]c2ccccc12)C(=O)N[C@@H](CO)C(=O)N[C@@H](CCCCN)C(=O)N[C@@H](CCCCN)C(=O)N[C@H](C(=O)N1CCC[C@H]1C(=O)N[C@@H](CS)C(=O)N[C@H](C(=O)N[C@@H](CO)C(=O)O)C(C)C)C(C)C)C(C)C` [WSC02, reference compound] (H-IVRWSKKVPCVS-OH; C-terminus assumed), for which, in series [5], the “reduction of CXCL12-induced AKT signaling” value is recorded as “about 50%”. Further, the “remaining (relative) activity after 2 hours of plasma incubation” value in series [3] (human plasma, 2 hours) is “completely inactive”. For the same molecule, the “reduction of CXCL12-induced ERK signaling” value in series [6] is given as 20%. Besides, the “remaining activity in human S9 liver fractions after 2 hours” value in series [4] (2 hours) is given as “readily inactivated by liver enzymes”.

B1: SEQ ID NO.: 164 (peptide)
peptide: ILRWSRK([Glu-Stearoyl])LPSVS
notes: derived from JM#198 by replacing the cysteine at position 10 by a serine; also called ILRWSRK(Glu-Ste)LPSVS
As usually defined, the IC50 is the concentration at which inhibition is half-maximal. As to B1, in series [7], the IC50 was under 25 nM. The “IC50, HIV inhibition assay” value in [8] was over 150 nM.

Consider ILRWSRKLPCVS (not fully specified (residue 7)) [JM#198], for which the IC50 in series [7] was under 25 nM. The “IC50, HIV inhibition assay” value in series [8] was over 150 nM.

On to [dM]LRWSRK([Glu-Palmitoyl])-NH2 [JM#196], for which the IC50 in series [7] is under 25 nM; in [9], 31 nM. For the same molecule, in series [8], the “IC50, HIV inhibition assay” value is over 150 nM.

On to [dM]LRWSRKK-NH2 (not fully specified (residue 8)) [JM#197], for which the IC50 in series [7] was under 25 nM. For the same molecule, the “IC50, HIV inhibition assay” value in [8] was over 150 nM.

[dL]MRWSRKK-NH2 (not fully specified (residue 8)) [JM#195] registered an IC50 in [7] of under 25 nM. In series [8], the “IC50, HIV inhibition assay” value is 50 nM to 150 nM (2×) and > 150 nM.
